The results in this text go back to patent publication CN113045656A (TAIZHOU ENZE MEDICAL CT GROUP, dated 2021).

In the assay the target is T1, G5-pep2(299-319aa) 抗原肽 (human).
T1 peptide: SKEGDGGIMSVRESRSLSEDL
The assay can be described thus: indirect ELISA, peptide coated at 2 ug/ml, purified antibody in 2-fold dilutions from 1:200, logistic fit. (In general: In an ELISA, binding on a coated surface is turned into a signal by an enzyme label.)

B1: 抗HLA-G异构体分子HLA-G5及HLA-G6的单克隆抗体(9Y5G6) (antibody, V domains shown)
VH: VQLQESGGGLVQPGGSRKLSCAASGFTFRDFGMAWVRQVPGMGPEWVASISNLARIIDYADTVTGRFTISRENAKNTLYLEMNSLRSEDSAIYYCARVTTIVPDYWGQGTSLTVSS
VL: DIVITQDELSLPVSLGDHTSISCRSSQSLLHSNGHTYLHWYLQKPGQSPKLLIYKVSNRFSGVPDRFSGSGSGTDFTLKISRVEAEDLGVYFCSQSTHVPWTFGGGTKVEIKR
notes: only the CDRs are; also called 抗HLA-G单克隆抗体(9Y5G6)
Consider B1, for which the Ka worked out at 1.5e+11 M⁻¹ and the “X0 (midpoint of the logistic fit, antibody dilution factor)” value was 1.56e+06 dilution fold.
